Experiments:
∆Zn1∆Zn2-PARP1 [1] = biological target: T1, ∆Zn1∆Zn2-PARP1 (UniProt P09874 216-1014, del1-215); assay: sedimentation velocity AUC; 10 mM Tris pH 8.0, 100 mM NaCl, 4 °C; 1.8 µM DNA, 7.2 µM protein; reaction boundary, rapid equilibrium; EMSA: 25 mM Tris pH 8.0, 150 mM NaCl, 50 mM arginine, 1 mM EDTA, 0.1 mM TCEP, 1 mg/mL BSA, 20 °C, 30 min; 0.06 µM nucleic acid; conditions: protein: recombinant; tags: His; label: 5'-32P on one strand (EMSA); unlabeled in AUC; blunt
∆CAT-PARP1 [2] = biological target: T2, ∆CAT-PARP1 (UniProt P09874 1-662, del663-1014); assay: EMSA; monomer-equivalent Kmono; n=3.9±0.2; ω=139.9±59.5; EMSA: 25 mM Tris pH 8.0, 150 mM NaCl, 50 mM arginine, 1 mM EDTA, 0.1 mM TCEP, 1 mg/mL BSA, 20 °C, 30 min; 0.06 µM nucleic acid; conditions: protein: recombinant; tags: His; label: 5'-32P on one strand (EMSA); unlabeled in AUC; blunt
T2 sequence (P09874 1-662, stated change not applied): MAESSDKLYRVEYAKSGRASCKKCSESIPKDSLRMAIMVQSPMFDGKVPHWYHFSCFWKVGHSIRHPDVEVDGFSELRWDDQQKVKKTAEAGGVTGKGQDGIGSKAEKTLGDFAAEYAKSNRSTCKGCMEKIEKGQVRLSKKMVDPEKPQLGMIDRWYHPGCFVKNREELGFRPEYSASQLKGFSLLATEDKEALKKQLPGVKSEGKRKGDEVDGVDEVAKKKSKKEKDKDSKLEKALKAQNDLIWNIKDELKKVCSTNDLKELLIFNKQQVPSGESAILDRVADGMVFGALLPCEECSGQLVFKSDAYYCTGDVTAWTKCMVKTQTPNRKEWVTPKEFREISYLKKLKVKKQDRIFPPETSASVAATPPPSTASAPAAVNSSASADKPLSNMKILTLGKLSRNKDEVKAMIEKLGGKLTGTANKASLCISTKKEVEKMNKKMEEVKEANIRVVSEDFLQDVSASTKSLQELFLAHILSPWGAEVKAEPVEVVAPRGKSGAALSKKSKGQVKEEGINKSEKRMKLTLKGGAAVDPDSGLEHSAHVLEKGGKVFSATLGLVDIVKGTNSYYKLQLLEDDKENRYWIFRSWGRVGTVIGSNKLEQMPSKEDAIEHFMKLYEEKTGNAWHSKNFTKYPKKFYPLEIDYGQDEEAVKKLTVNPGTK

WT-PARP1 (full-length) [3] = biological target: T3, WT-PARP1 (full-length) (UniProt P09874 1-1014); assay: EMSA; monomer-equivalent Kmono; n=4.1±0.2; ω=82.6±20.5; EMSA: 25 mM Tris pH 8.0, 150 mM NaCl, 50 mM arginine, 1 mM EDTA, 0.1 mM TCEP, 1 mg/mL BSA, 20 °C, 30 min; 0.06 µM nucleic acid; conditions: protein: recombinant; tags: His; label: 5'-32P on one strand (EMSA); unlabeled in AUC; blunt
T3 sequence (P09874 whole entry): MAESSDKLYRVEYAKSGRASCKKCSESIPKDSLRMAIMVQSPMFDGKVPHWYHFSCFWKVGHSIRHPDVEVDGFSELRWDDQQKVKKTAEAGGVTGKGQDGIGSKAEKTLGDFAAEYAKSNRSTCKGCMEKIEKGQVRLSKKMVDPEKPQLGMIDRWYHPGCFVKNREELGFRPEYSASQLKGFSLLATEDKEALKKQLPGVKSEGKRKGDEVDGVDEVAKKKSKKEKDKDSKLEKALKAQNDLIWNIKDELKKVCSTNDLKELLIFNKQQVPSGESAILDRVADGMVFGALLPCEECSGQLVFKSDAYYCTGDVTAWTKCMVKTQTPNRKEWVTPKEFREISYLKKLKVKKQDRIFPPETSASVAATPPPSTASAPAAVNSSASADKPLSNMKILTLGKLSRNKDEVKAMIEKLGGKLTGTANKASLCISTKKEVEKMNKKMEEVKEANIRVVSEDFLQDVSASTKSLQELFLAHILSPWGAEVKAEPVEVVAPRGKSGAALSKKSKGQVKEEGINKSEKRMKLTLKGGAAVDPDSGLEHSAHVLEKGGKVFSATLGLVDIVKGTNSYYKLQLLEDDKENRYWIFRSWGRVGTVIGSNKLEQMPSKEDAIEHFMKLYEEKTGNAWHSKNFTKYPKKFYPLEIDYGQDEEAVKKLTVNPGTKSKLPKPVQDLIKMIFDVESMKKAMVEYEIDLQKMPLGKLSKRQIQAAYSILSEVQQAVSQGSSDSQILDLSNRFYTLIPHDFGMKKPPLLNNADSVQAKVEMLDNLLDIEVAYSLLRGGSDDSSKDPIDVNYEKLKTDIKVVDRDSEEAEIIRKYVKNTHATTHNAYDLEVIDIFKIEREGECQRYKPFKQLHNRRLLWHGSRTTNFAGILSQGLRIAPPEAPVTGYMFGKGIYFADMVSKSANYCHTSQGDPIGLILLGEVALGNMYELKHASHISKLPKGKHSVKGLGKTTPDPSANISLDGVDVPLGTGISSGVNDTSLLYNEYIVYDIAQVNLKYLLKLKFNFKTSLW

WT-PARP1 (full-length) [4] = biological target: T3, WT-PARP1 (full-length); assay: EMSA; monomer-equivalent Kmono; n=1.8±0.1; ω=24.7±8.6; EMSA: 25 mM Tris pH 8.0, 150 mM NaCl, 50 mM arginine, 1 mM EDTA, 0.1 mM TCEP, 1 mg/mL BSA, 20 °C, 30 min; 0.06 µM nucleic acid; conditions: protein: recombinant; tags: His; label: 5'-32P
∆CAT-PARP1 [5] = biological target: T2, ∆CAT-PARP1; assay: EMSA; Kmono; n=1.0±0.1; EMSA: 25 mM Tris pH 8.0, 150 mM NaCl, 50 mM arginine, 1 mM EDTA, 0.1 mM TCEP, 1 mg/mL BSA, 20 °C, 30 min; 0.06 µM nucleic acid; conditions: protein: recombinant; tags: His; label: 5'-32P
∆Zn1∆Zn2-PARP1 [6] = biological target: T1, ∆Zn1∆Zn2-PARP1; assay: EMSA; monomer-equivalent Kmono; n=1.7±0.1; ω=56.7±14.4; EMSA: 25 mM Tris pH 8.0, 150 mM NaCl, 50 mM arginine, 1 mM EDTA, 0.1 mM TCEP, 1 mg/mL BSA, 20 °C, 30 min; 0.06 µM nucleic acid; conditions: protein: recombinant; tags: His; label: 5'-Cy3
WT-PARP1 (full-length) [7] = biological target: T3, WT-PARP1 (full-length); assay: EMSA; monomer-equivalent Kmono; n=2.2±0.1; ω=51.4±10.1; EMSA: 25 mM Tris pH 8.0, 150 mM NaCl, 50 mM arginine, 1 mM EDTA, 0.1 mM TCEP, 1 mg/mL BSA, 20 °C, 30 min; 0.06 µM nucleic acid; conditions: protein: recombinant; tags: His; label: 5'-Cy3
∆CAT-PARP1 [8] = biological target: T2, ∆CAT-PARP1; assay: EMSA; monomer-equivalent Kmono; n=1.9±0.1; ω=49.0±12.9; EMSA: 25 mM Tris pH 8.0, 150 mM NaCl, 50 mM arginine, 1 mM EDTA, 0.1 mM TCEP, 1 mg/mL BSA, 20 °C, 30 min; 0.06 µM nucleic acid; conditions: protein: recombinant; tags: His; label: 5'-Cy3
WT-PARP1 (full-length) [9] = biological target: T3, WT-PARP1 (full-length); assay: EMSA; monomer-equivalent Kmono; n=1.9±0.2; ω=67.3±10.8; EMSA: 25 mM Tris pH 8.0, 150 mM NaCl, 50 mM arginine, 1 mM EDTA, 0.1 mM TCEP, 1 mg/mL BSA, 20 °C, 30 min; 0.06 µM nucleic acid; conditions: protein: recombinant; tags: His; label: 5'-32P
∆CAT-PARP1 [10] = biological target: T2, ∆CAT-PARP1; assay: EMSA; monomer-equivalent Kmono; n=1.8±0.1; ω=86.1±20.3; EMSA: 25 mM Tris pH 8.0, 150 mM NaCl, 50 mM arginine, 1 mM EDTA, 0.1 mM TCEP, 1 mg/mL BSA, 20 °C, 30 min; 0.06 µM nucleic acid; conditions: protein: recombinant; tags: His; label: 5'-32P
∆Zn1∆Zn2-PARP1 [11] = biological target: T1, ∆Zn1∆Zn2-PARP1; assay: EMSA; monomer-equivalent Kmono; n=2.9±0.2; ω=104.3±31.1; EMSA: 25 mM Tris pH 8.0, 150 mM NaCl, 50 mM arginine, 1 mM EDTA, 0.1 mM TCEP, 1 mg/mL BSA, 20 °C, 30 min; 0.06 µM nucleic acid; conditions: protein: recombinant; tags: His; label: 5'-32P

T1 sequence (P09874 216-1014, stated change not applied): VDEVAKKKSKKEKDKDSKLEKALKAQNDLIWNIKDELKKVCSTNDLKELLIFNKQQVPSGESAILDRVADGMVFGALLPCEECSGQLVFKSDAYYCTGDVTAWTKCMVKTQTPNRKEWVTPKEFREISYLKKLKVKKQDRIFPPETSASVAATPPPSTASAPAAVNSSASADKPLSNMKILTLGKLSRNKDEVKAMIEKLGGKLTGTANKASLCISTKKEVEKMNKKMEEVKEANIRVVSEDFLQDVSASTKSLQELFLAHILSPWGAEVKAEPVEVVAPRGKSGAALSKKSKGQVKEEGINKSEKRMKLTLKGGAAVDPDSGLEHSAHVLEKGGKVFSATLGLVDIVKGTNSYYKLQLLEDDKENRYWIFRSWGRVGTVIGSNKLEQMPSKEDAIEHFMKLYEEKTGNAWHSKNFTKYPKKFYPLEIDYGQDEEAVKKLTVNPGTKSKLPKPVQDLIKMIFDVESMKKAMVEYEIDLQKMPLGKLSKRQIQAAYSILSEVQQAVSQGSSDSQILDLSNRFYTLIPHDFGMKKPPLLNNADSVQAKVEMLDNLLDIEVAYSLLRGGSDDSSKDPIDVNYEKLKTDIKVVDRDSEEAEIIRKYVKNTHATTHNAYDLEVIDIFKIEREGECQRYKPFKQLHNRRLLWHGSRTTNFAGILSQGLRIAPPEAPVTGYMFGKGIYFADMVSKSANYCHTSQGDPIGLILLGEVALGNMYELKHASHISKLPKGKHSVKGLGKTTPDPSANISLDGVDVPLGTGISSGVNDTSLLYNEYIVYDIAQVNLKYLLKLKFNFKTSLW

B1: ds19-mer DNA (dsDNA)
DNA 1: CGTACGCGGGTTTAAACGA
DNA 2: TCGTTTAAACCCGCGTACG
binding result (∆Zn1∆Zn2-PARP1 [1]): binds
Ka (∆CAT-PARP1 [2]): 1.3e+07 M⁻¹
Ka (WT-PARP1 (full-length) [3]): 1.2e+07 M⁻¹

CGTACGCGGGTTTAAACGA (ssDNA) [ss19-mer DNA]
Ka (WT-PARP1 (full-length) [4]): 3.3e+06 M⁻¹
Ka (∆CAT-PARP1 [5]): 114000 M⁻¹

TTTTTTTTTTTTTTTTTTTT (ssDNA) [Cy3-T20 DNA]
Ka (∆Zn1∆Zn2-PARP1 [6]): 2.5e+06 M⁻¹
Ka (WT-PARP1 (full-length) [7]): 1.3e+07 M⁻¹
Ka (∆CAT-PARP1 [8]): 3.3e+06 M⁻¹

UUUUUUUUUUUUUUUUUUUU (ssRNA) [U20 RNA]
Ka (WT-PARP1 (full-length) [9]): 2.1e+08 M⁻¹
Ka (∆CAT-PARP1 [10]): 6.6e+06 M⁻¹
Ka (∆Zn1∆Zn2-PARP1 [11]): 9.1e+07 M⁻¹

— paper PMC10980755, “Cooperative nucleic acid binding by Poly ADP-ribose polymerase 1”
